Source: patent US20140314668A1, “TECHNETIUM-99M LABELED COMPLEX OF GOLD NANOPARTICLE-GOLD BINDING PEPTIDES, AND METHOD OF MAKING AND USING THE SAME” (Korea Atomic Energy Research Institute, priority 2013, published 2014)

Assay: NaCl-induced aggregation method (adsorption of GBP1 on the surface of GNPs, UV-Vis)
Type: physicochemical
Experimental: In order to investigate a minimum concentration of GBP1 required for complete adsorption on the surface of gold nanoparticles (GNPs), since it is known that salts such as NaCl induce aggregation of gold and other nanoparitices (H.M.L. M. Y. Lin et al, Nature, 339, 1989, 360-362), an NaCl-induced aggregation method was used, and concentration of GBP1 adsorbed on the surface of GNPs was analyzed.
A variety of concentrations of GBP1 were added to 0.5 mL of GNP solution (O.D.=1.0, D=10 nm) to form a mixture, followed by standing for 10 minutes at room temperature. Next, 10% NaCl solution was added to the mixture so as to have a final concentration of 0.5% in order to induce aggregation of GNPs, followed by standing for 10 minutes at room temperature. Subsequently, in order to protect additional aggregation, 0.1% BSA was added to the resultant, followed by standing for 10 minutes at room temperature. Finally, aggregation degree of GNPs was measured in a wavelength range of 220 to 700 nm by UV-Vis spectrophotometer, and the measurement results are shown in FIG. 1.

## GBP1: synthetic gold binding peptide 1, amino acid sequence (SEQ ID No. 1): MHGKTQATSGTIQS (GBP1)
0.5 mL GNP solution (O.D.=1.0, D=10 nm), 0.5% NaCl final, room temperature
  GBP1 concentration at which aggregation of GNPs is prevented: more than 10 μg/ml
GBP1 concentration of 10 μg/ml or less, in the presence of NaCl
  main surface plasmon band of the GNP solution (red-shifted): 525 nm
